From patent US20130251724A1 (GlaxoSmithKline, published 2013)
Substitutions are numbered along the chain they refer to. Names and notes keep the numbering of the source.

T1: Human OSM (human, UniProt P13725 26-221)
T1 construct: Recombinant human OSM; also called hOSM; human Oncostatin M
T1 sequence: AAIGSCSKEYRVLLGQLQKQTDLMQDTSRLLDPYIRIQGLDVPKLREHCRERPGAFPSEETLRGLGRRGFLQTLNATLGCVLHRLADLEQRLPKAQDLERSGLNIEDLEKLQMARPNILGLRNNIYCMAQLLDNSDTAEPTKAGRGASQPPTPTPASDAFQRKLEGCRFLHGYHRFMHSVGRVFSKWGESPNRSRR

B1: Humanised 10G8 H0L0 (antibody, V domains shown)
VH: EVQLVESGGGLVQPGGSLRLSCAASGFTFSNYAMSWVRQAPGKGLEWVATISDGGSFTYYLDNVRGRFTISRDNAKNSLYLQMNSLRAEDTAVYYCARDVGHTTFWYFDVWGRGTLVTVSS
VL: DIVMTQSPDSLAVSLGERATINCRASKSVSAAGYNFMHWYQQKPGQPPKLLIYYASNLESGVPDRFSGSGSGTDFTLTISSLQAEDVAVYYCLHSREFPFTFGGGTKVEIK
B2: Humanised 10G8 H0L2 (antibody, V domains shown)
VH: B1 VH
VL: B1 VL with A88V
B3: Humanised 10G8 H2L0 (antibody, V domains shown)
VH: B1 VH with R113S
VL: B1 VL
B4: Humanised 10G8 H0L3 (antibody, V domains shown)
VH: B1 VH
VL: B1 VL with K107N
B5: Humanised 10G8 H1L3 (antibody, V domains shown)
VH: B1 VH with V2M
VL: B1 VL with K107N
B6: Humanised 10G8 H2L2 (antibody, V domains shown)
VH: B1 VH with R113S
VL: B1 VL with A88V
B7: Humanised 10G8 H2L3 (antibody, V domains shown)
VH: B1 VH with R113S
VL: B1 VL with K107N
B8: Humanised 10G8 H1L0 (antibody, V domains shown)
VH: B1 VH with V2M
VL: B1 VL
B9: Humanised 10G8 H1L2 (antibody, V domains shown)
VH: B1 VH with V2M
VL: B1 VL with A88V
B10: Pos 95 Ala (antibody, V domains shown)
VH: B1 VH with N31S, D99A
VL: DIVMTQSPDSLAVSLGERATINCRASKSVSAAGYNFMHWYQQKPGQPPKVLIYYASNLESGVPDRFSGSGSGTDFTLTISSLQAEDVAVYYCLHSREFPFTFGGGTKVEIKR
notes: the same holds for f2 to f171; also called CDRH3 D95>A
B11: Pos 97 Phe (antibody, V domains shown)
VH: B1 VH with N31S, G101F
VL: B10 VL
notes: also called CDRH3 G97>F
B12: Pos 95 His (antibody, V domains shown)
VH: B1 VH with N31S, D99H
VL: B10 VL
notes: also called CDRH3 D95>H
B13: Pos 97 Met (antibody, V domains shown)
VH: B1 VH with N31S, G101M
VL: B10 VL
notes: also called CDRH3 G97>M
B14: Pos 98 Gly (antibody, V domains shown)
VH: B1 VH with N31S, H102G
VL: B10 VL
notes: also called CDRH3 H98>G
B15: Pos 95 Leu (antibody, V domains shown)
VH: B1 VH with N31S, D99L
VL: B10 VL
notes: also called CDRH3 D95>L
B16: Pos 96 His (antibody, V domains shown)
VH: B1 VH with N31S, V100H
VL: B10 VL
notes: also called CDRH3 V96>H
B17: Pos 96 Lys (antibody, V domains shown)
VH: B1 VH with N31S, V100K
VL: B10 VL
notes: also called CDRH3 V96>K
B18: Pos 98 Ala (antibody, V domains shown)
VH: B1 VH with N31S, H102A
VL: B10 VL
notes: also called CDRH3 H98>A
B19: Pos 95 Gln (antibody, V domains shown)
VH: B1 VH with N31S, D99Q
VL: B10 VL
notes: also called CDRH3 D95>Q
B20: Pos 95 Gly (antibody, V domains shown)
VH: B1 VH with N31S, D99G
VL: B10 VL
notes: also called CDRH3 D95>G
B21: Pos 98 Gln (antibody, V domains shown)
VH: B1 VH with N31S, H102Q
VL: B10 VL
notes: also called CDRH3 H98>Q
B22: Pos 99 Cys (antibody, V domains shown)
VH: B1 VH with N31S, T103C
VL: B10 VL
notes: also called CDRH3 T99>C
B23: Pos 100C Gly (antibody, V domains shown)
VH: B1 VH with N31S, Y107G
VL: B10 VL
notes: also called CDRH3 Y100C>G
B24: Pos 100C Glu (antibody, V domains shown)
VH: B1 VH with N31S, Y107E
VL: B10 VL
notes: also called CDRH3 Y100C>E
B25: Pos 98 Phe (antibody, V domains shown)
VH: B1 VH with N31S, H102F
VL: B10 VL
notes: also called CDRH3 H98>F
B26: Pos 100D Glu (antibody, V domains shown)
VH: B1 VH with N31S, F108E
VL: B10 VL
notes: also called CDRH3 F100D>E
B27: Pos 100C Phe (antibody, V domains shown)
VH: B1 VH with N31S, Y107F
VL: B10 VL
notes: also called CDRH3 Y100C>F
B28: Pos 95 Met (antibody, V domains shown)
VH: B1 VH with N31S, D99M
VL: B10 VL
notes: also called CDRH3 D95>M
B29: Pos 96 Phe (antibody, V domains shown)
VH: B1 VH with N31S, V100F
VL: B10 VL
notes: also called CDRH3 V96>F
B30: Pos 95 Glu (antibody, V domains shown)
VH: B1 VH with N31S, D99E
VL: B10 VL
notes: also called CDRH3 D95>E
B31: Pos 97 Cys (antibody, V domains shown)
VH: B1 VH with N31S, G101C
VL: B10 VL
notes: also called CDRH3 G97>C
B32: Pos 100D Ala (antibody, V domains shown)
VH: B1 VH with N31S, F108A
VL: B10 VL
notes: also called CDRH3 F100D>A
B33: Pos 100D Gly (antibody, V domains shown)
VH: B1 VH with N31S, F108G
VL: B10 VL
notes: also called CDRH3 F100D>G
B34: Pos 96 Gly (antibody, V domains shown)
VH: B1 VH with N31S, V100G
VL: B10 VL
notes: also called CDRH3 V96>G
B35: Pos 100D Asp (antibody, V domains shown)
VH: B1 VH with N31S, F108D
VL: B10 VL
notes: also called CDRH3 F100D>D
B36: Pos 99 Ala (antibody, V domains shown)
VH: B1 VH with N31S, T103A
VL: B10 VL
notes: also called CDRH3 T99>A
B37: Pos 97 Ala (antibody, V domains shown)
VH: B1 VH with N31S, G101A
VL: B10 VL
notes: also called CDRH3 G97>A
B38: Pos 100B Glu (antibody, V domains shown)
VH: B1 VH with N31S, W106E
VL: B10 VL
notes: also called CDRH3 W100B>E

Target: T1, Human OSM
Assay: BIAcore kinetics, transfection supernatant

| Kd [nM] | koff [s⁻¹] | kon [M⁻¹ s⁻¹] | Binder |
| --- | --- | --- | --- |
| 0.435 | 0.00016 | 369000 | B1 |
| 0.375 | 0.000137 | 365000 | B2 |
| 0.398 | 0.000145 | 363000 | B3 |
| 0.388 | 0.000145 | 374000 | B4 |
| 0.344 | 0.000127 | 371000 | B5 |
| 0.387 | 0.000142 | 368000 | B6 |
| 0.398 | 0.00015 | 376000 | B7 |
| 0.425 | 0.000162 | 381000 | B8 |
| 0.445 | 0.000163 | 365000 | B9 |

Target: T1, Human OSM
Assay: SPR (ProteOn XPR36 or Biacore T100), captured supernatant, OSM as analyte
Protocol: The initial kinetic analyses for the CDRH3 screen were carried out on the ProteOn XPR36 (Biorad Laboratories) and certain supernatants were selected for more accurate kinetic analysis on the BiaCore T100.
For the ProteOn analysis, anti-human IgG (GE Healthcare/Biacore BR-1008-39) was coupled to a GLM chip (Biorad Laboratories 176-5012) by primary amine coupling. The CDRH3 variants were captured directly on to this surface and recombinant human OSM was passed over the captured antibody surface at 256, 64, 16, 4 and 1 nM, with a buffer injection alone (i.e. 0 nM) used to double reference the binding curves. Following the OSM binding event, the capture surfaces were regenerated: with 3M MgCl₂ the regeneration removed the previously captured antibody ready for another cycle of capture and binding analysis. The data was then fitted to the 1:1 model (with mass transport) inherent to the ProteOn analysis software. The run was carried out using HBS-EP (Biacore/GE-Healthcare BR-1006-69) and the analysis temperature was 25° C.
A similar method was used for analysis of constructs using the Biacore T100, anti-human IgG (GE Healthcare/Biacore BR-1008-39) was coupled to a CM5 chip (GE Healthcare/Biacore BR-1006-68) by primary amine coupling, antibodies were captured on this surface and recombinant human OSM was passed over the captured antibody surface at 256, 64, 16, 4 and 1 nM, with a buffer injection alone (i.e. 0 nM) used to double reference the binding curves. Regeneration was by using pulses of 3M 3M MgCl₂ or 100 mM phosphoric acid or using both reagents. The data was fitted to the 1:1 model inherent to the Biacore T100 analysis software. The run was carried out using HBS-EP (Biacore/GE-Healthcare BR-1006-69) and the analysis temperature was 25° C.

| Kd [nM] | Binder |
| --- | --- |
| 0.576 | B10 |
| 0.637 | B11 |
| 0.499 | B12 |
| 0.809 | B13 |
| 1.11 | B14 |
| 0.568 | B15 |
| 0.48 | B16 |
| 0.671 | B17 |
| 0.659 | B18 |
| 0.57 | B19 |
| 0.517 | B20 |
| 0.729 | B21 |
| 0.708 | B22 |
| 0.388 | B23 |
| 0.482 | B24 |
| 0.325 | B25 |
| 0.688 | B26 |
| 0.365 | B27 |
| 0.649 | B28 |
| 0.61 | B29 |
| 0.785 | B30 |
| 0.651 | B31 |
| 0.869 | B32 |
| 0.661 | B33 |
| 0.488 | B34 |
| 0.672 | B35 |
| 0.541 | B36 |
| 0.486 | B37 |
| 0.491 | B38 |
